# Measured values: the Human Domainome abundance scans (Beltran et al. 2025)
# ± gives the uncertainty stated by the source.
# Test: abundance fitness (aPCA) (normalised: wild type 0, dead -1); higher = more abundant; growth selection in yeast, the domain comes from the species named
# Settings: Saccharomyces cerevisiae (strain ATCC 204508 / S288c)
row,Substance,abundance fitness
1,"E3 ubiquitin-protein ligase RSP5 Q339T, P39940",-0.11 ± 0.065
2,"E3 ubiquitin-protein ligase RSP5 Q339V, P39940",-0.076 ± 0.045
3,"E3 ubiquitin-protein ligase RSP5 Q339W, P39940",-0.406 ± 0.046
4,"E3 ubiquitin-protein ligase RSP5 Q339Y, P39940",-0.181 ± 0.1
5,"E3 ubiquitin-protein ligase RSP5 Q365A, P39940",0.097 ± 0.044
6,"E3 ubiquitin-protein ligase RSP5 Q365C, P39940",0.077 ± 0.089
7,"E3 ubiquitin-protein ligase RSP5 Q365E, P39940",0.057 ± 0.059
8,"E3 ubiquitin-protein ligase RSP5 Q365F, P39940",-0.034 ± 0.15
9,"E3 ubiquitin-protein ligase RSP5 Q365G, P39940",0.052 ± 0.046
10,"E3 ubiquitin-protein ligase RSP5 Q365H, P39940",0.167 ± 0.11
11,"E3 ubiquitin-protein ligase RSP5 Q365K, P39940",0.022 ± 0.064
12,"E3 ubiquitin-protein ligase RSP5 Q365L, P39940",0.033 ± 0.058
13,"E3 ubiquitin-protein ligase RSP5 Q365M, P39940",-0.022 ± 0.17
14,"E3 ubiquitin-protein ligase RSP5 Q365R, P39940",0.014 ± 0.043
15,"E3 ubiquitin-protein ligase RSP5 Q365S, P39940",0.038 ± 0.062
16,"E3 ubiquitin-protein ligase RSP5 Q365V, P39940",-0.014 ± 0.045
17,"E3 ubiquitin-protein ligase RSP5 Q365W, P39940",0.051 ± 0.08
18,"E3 ubiquitin-protein ligase RSP5 Q365Y, P39940",-0.004 ± 0.1
19,"E3 ubiquitin-protein ligase RSP5 Q366A, P39940",0.047 ± 0.13
20,"E3 ubiquitin-protein ligase RSP5 Q366C, P39940",-0.572 ± 0.41
21,"E3 ubiquitin-protein ligase RSP5 Q366G, P39940",0.131 ± 0.064
22,"E3 ubiquitin-protein ligase RSP5 Q366H, P39940",-0.304 ± 0.19
23,"E3 ubiquitin-protein ligase RSP5 Q366L, P39940",0.24 ± 0.11
24,"E3 ubiquitin-protein ligase RSP5 Q366R, P39940",0.117 ± 0.053
25,"E3 ubiquitin-protein ligase RSP5 Q366S, P39940",-0.008 ± 0.077

row,Substance,abundance fitness
1,"E3 ubiquitin-protein ligase RSP5 Q366T, P39940",0.054 ± 0.078
2,"E3 ubiquitin-protein ligase RSP5 Q366V, P39940",0.023 ± 0.11
3,"E3 ubiquitin-protein ligase RSP5 Q366W, P39940",-0.001 ± 0.061
4,"E3 ubiquitin-protein ligase RSP5 Q366Y, P39940",0.307 ± 0.21
5,"E3 ubiquitin-protein ligase RSP5 R340A, P39940",0.018 ± 0.047
6,"E3 ubiquitin-protein ligase RSP5 R340C, P39940",0.064 ± 0.059
7,"E3 ubiquitin-protein ligase RSP5 R340D, P39940",-0.256 ± 0.074
8,"E3 ubiquitin-protein ligase RSP5 R340E, P39940",-0.01 ± 0.063
9,"E3 ubiquitin-protein ligase RSP5 R340F, P39940",-0.155 ± 0.16
10,"E3 ubiquitin-protein ligase RSP5 R340H, P39940",-0.206 ± 0.22
11,"E3 ubiquitin-protein ligase RSP5 R340I, P39940",0.002 ± 0.087
12,"E3 ubiquitin-protein ligase RSP5 R340K, P39940",0.133 ± 0.081
13,"E3 ubiquitin-protein ligase RSP5 R340L, P39940",0.078 ± 0.055
14,"E3 ubiquitin-protein ligase RSP5 R340M, P39940",0.052 ± 0.055
15,"E3 ubiquitin-protein ligase RSP5 R340N, P39940",-0.089 ± 0.08
16,"E3 ubiquitin-protein ligase RSP5 R340P, P39940",-1 ± 0.063
17,"E3 ubiquitin-protein ligase RSP5 R340Q, P39940",0.001 ± 0.054
18,"E3 ubiquitin-protein ligase RSP5 R340S, P39940",-0.039 ± 0.057
19,"E3 ubiquitin-protein ligase RSP5 R340T, P39940",-0.108 ± 0.062
20,"E3 ubiquitin-protein ligase RSP5 R340V, P39940",0.022 ± 0.049
21,"E3 ubiquitin-protein ligase RSP5 R340W, P39940",-0.088 ± 0.054
22,"E3 ubiquitin-protein ligase RSP5 R346A, P39940",0.121 ± 0.05
23,"E3 ubiquitin-protein ligase RSP5 R346C, P39940",0.095 ± 0.069
24,"E3 ubiquitin-protein ligase RSP5 R346D, P39940",0.307 ± 0.057
25,"E3 ubiquitin-protein ligase RSP5 R346E, P39940",0.414 ± 0.06

row,Substance,abundance fitness
1,"E3 ubiquitin-protein ligase RSP5 R346F, P39940",-0.042 ± 0.069
2,"E3 ubiquitin-protein ligase RSP5 R346G, P39940",0.016 ± 0.044
3,"E3 ubiquitin-protein ligase RSP5 R346H, P39940",0.289 ± 0.096
4,"E3 ubiquitin-protein ligase RSP5 R346K, P39940",0.192 ± 0.064
5,"E3 ubiquitin-protein ligase RSP5 R346L, P39940",0.078 ± 0.05
6,"E3 ubiquitin-protein ligase RSP5 R346M, P39940",0.222 ± 0.067
7,"E3 ubiquitin-protein ligase RSP5 R346N, P39940",0.185 ± 0.085
8,"E3 ubiquitin-protein ligase RSP5 R346P, P39940",-0.165 ± 0.049
9,"E3 ubiquitin-protein ligase RSP5 R346Q, P39940",0.165 ± 0.066
10,"E3 ubiquitin-protein ligase RSP5 R346S, P39940",0.15 ± 0.05
11,"E3 ubiquitin-protein ligase RSP5 R346T, P39940",0.094 ± 0.053
12,"E3 ubiquitin-protein ligase RSP5 R346V, P39940",0.056 ± 0.049
13,"E3 ubiquitin-protein ligase RSP5 R346W, P39940",-0.017 ± 0.073
14,"E3 ubiquitin-protein ligase RSP5 R346Y, P39940",0.068 ± 0.079
15,"E3 ubiquitin-protein ligase RSP5 R355C, P39940",-0.17 ± 0.052
16,"E3 ubiquitin-protein ligase RSP5 R355D, P39940",-0.462 ± 0.088
17,"E3 ubiquitin-protein ligase RSP5 R355E, P39940",-0.159 ± 0.053
18,"E3 ubiquitin-protein ligase RSP5 R355F, P39940",-0.057 ± 0.2
19,"E3 ubiquitin-protein ligase RSP5 R355G, P39940",-0.186 ± 0.041
20,"E3 ubiquitin-protein ligase RSP5 R355H, P39940",-0.101 ± 0.063
21,"E3 ubiquitin-protein ligase RSP5 R355I, P39940",-0.35 ± 0.086
22,"E3 ubiquitin-protein ligase RSP5 R355K, P39940",0.033 ± 0.066
23,"E3 ubiquitin-protein ligase RSP5 R355L, P39940",-0.192 ± 0.049
24,"E3 ubiquitin-protein ligase RSP5 R355M, P39940",-0.065 ± 0.07
